# T1: active BoNT/G holotoxin (Clostridium botulinum, UniProt Q60393 2-1297)
# T1 sequence: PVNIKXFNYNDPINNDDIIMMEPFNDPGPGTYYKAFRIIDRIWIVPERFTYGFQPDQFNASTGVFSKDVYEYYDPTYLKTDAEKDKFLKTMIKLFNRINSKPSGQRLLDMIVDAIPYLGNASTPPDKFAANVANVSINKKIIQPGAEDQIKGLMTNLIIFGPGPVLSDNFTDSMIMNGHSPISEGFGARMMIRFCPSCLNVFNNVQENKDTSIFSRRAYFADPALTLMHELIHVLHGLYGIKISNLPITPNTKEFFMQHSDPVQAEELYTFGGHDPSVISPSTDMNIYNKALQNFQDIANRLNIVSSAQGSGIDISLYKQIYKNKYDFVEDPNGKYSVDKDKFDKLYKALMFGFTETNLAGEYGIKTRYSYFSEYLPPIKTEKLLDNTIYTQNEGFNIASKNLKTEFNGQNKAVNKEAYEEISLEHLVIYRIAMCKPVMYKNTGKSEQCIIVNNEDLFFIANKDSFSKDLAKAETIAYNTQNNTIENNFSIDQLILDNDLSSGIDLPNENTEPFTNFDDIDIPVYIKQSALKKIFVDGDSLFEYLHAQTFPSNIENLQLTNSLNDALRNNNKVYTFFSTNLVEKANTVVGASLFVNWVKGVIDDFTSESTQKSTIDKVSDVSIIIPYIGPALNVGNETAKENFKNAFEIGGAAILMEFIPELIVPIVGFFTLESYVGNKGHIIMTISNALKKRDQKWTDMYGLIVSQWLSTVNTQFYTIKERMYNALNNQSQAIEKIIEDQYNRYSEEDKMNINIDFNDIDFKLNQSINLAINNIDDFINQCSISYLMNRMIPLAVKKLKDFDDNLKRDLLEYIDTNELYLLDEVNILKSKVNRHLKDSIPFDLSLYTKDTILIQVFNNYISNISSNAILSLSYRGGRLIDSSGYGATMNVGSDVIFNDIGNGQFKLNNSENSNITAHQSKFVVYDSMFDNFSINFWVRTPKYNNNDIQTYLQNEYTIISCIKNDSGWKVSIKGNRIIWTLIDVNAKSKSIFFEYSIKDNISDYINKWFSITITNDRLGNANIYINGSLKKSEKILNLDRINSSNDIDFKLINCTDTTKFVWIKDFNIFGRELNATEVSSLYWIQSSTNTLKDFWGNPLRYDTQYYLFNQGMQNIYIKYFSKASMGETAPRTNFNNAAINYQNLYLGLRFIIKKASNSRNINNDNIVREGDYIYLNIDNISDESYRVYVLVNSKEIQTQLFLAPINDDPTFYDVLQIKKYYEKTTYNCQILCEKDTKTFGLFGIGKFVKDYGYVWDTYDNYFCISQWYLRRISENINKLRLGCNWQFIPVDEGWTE
# T2: inactive BoNT/G (BoNT/Gi) (Clostridium botulinum, UniProt Q60393 1-1297)
# T2 sequence: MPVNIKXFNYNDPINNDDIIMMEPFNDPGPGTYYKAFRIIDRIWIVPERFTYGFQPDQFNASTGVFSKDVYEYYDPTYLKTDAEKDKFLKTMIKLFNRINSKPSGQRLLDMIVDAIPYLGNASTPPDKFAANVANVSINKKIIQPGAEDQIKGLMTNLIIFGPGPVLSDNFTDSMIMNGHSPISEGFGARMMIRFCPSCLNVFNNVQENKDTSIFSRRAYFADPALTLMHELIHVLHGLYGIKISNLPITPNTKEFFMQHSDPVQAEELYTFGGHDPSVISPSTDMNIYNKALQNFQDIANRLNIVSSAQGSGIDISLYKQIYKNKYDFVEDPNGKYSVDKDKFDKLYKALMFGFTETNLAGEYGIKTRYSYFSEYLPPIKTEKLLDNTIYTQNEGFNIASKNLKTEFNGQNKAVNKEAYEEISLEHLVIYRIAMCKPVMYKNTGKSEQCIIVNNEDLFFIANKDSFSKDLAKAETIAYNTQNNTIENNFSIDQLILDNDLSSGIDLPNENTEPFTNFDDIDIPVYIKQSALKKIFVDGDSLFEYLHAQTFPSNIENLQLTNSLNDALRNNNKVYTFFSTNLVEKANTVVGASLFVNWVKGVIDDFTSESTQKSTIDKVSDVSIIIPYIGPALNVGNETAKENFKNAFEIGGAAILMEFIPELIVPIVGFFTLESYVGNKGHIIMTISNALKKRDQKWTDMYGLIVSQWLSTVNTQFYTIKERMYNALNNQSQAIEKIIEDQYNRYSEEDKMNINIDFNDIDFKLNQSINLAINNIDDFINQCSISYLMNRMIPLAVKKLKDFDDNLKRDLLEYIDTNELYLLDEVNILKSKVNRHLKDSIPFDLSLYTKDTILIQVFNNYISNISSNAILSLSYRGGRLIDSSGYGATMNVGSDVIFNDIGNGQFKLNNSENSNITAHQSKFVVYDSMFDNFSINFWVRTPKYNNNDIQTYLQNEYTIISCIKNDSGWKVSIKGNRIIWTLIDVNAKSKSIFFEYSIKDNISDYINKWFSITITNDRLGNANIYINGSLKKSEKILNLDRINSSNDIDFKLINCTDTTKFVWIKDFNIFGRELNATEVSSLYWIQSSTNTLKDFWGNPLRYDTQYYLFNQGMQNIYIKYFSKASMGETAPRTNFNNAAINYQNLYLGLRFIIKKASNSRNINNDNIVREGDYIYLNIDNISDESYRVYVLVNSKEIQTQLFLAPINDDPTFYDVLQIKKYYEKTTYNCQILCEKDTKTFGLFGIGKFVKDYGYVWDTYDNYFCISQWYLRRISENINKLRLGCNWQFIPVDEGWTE
# B1: hu6G6 variant A3 scFv (scFv)
# scFv: QVQLVQSGAEVKKPGASVKLSCKASGFNIKDTYMHWVRQAPGQGLEWIGRIDPANGNTKYDPKFQGRATITAGTSINTAYLELSRLRSDDTAVYYCASGPNYYGTTWFAYWGQGTTVTVSSVDLKSGGSTSGSGKPGSGEGSSGSARKIVLTQSPSTLSASVGDRVTITCRASHGISNYLAWYQQKPGRAPKLLIYKASTLHIGVPSRFSGSGSGTEFALTISSLQPDDFSTYYCQQYISYLPHTFGQGTRLEIK
# B2: hu6G6 variant A3.1 scFv (scFv)
# scFv: QVQLVQSGAEVKKPGASVKLSCKASGFNIKDTYMHWVRQAPGQGLEWIGRIDPANGNTKYDPKFQGRATITAGTSINTAYLELSRLRSDDTAVYYCASGPNYYGTTWFAYWGQGTTVTVSSVDLKSGGSTSGSGKPGSGEGSSGSAREIVLTQSPSTLSASVGDRVTITCRASHGISNYLAWYQQKPGRAPKLLIYKASTLHIGVPSRFSGSGSGTEFALTISSLQPDDFSTYYCQQYNSYLPHTFGQGTRLEIK
# B3: hu6G6 variant A4 scFv (scFv)
# scFv: QVQLVQSGAEVKKPGASVKLSCKASGFNIKDTYMHWVRQAPGQGLEWIGRIDPENGNTKYDPKFQGRATITAYKSINTAYLELSRLRSDDTAVYYCASGPNYYGTTWFAYWGQGTTVTVSSVDLKSGGSTSDSGKPGSGEGSSGSAREIVLTQSPSTLSASVGDRVTITCRASHGISNYLAWYQQKPGRAPKLLIYKASTLHIGVPSRFSGSGSGTEFALTISSLQPDDFSTYYCQQYNSYLPHTFGQGTRLEIK
# B4: hu6G6 variant B8 scFv (scFv)
# scFv: QVQLVQSGAEVNKPGASVKLSCKASGFNIKDTYMHWVRQAPGQGLEWIGRIDPANGNTKYDPKFQGRATITAYTSFNTAYLELSRLRSDDTAVYYCASGPNYYGTTWFAYWGQGSTVTVSSVDLKSGGSTSGSGKPGSGEGSSGSAREIVLTQSPSTLSASVGDRVTITCRASHGISNYLAWYQQKPGRAPKLLIYKASTLHIGVPSRFSGSGSGTEFALTISSLQPDDFSTYYCQQYNSYLPHTFGQGTRLEIK
# B5: hu6G6 variant B8.1 scFv (scFv)
# scFv: QVQLVQSGAEVNKPGASVKLSCKASGFNIKDTYMHWVRQAPGQGLEWIGRIDPANGNTKYDPKFQGRATITAYTSFNTAYLELSRLRSDDTAVYYCASGPNYYGTTWFAYWGQGTTVTVSSVDLKSGGSTSGSGKPGSGEGSSGSAREIVLTQSPSTLSASVGDRVTITCRASHGISNYLAWYQQKPGRAPKLLIYKASTLHIGVPSRFSGSGSGTEFALTISSLQPDDFSTYYCQQYNSYLPHTFGQGTRLEIK
# B6: hu6G6.1 IgG (antibody, V domains shown)
# VH: QVQLVQSGAEVKKPGASVKLSCKASGFNIKDTYMHWVRQAPGQGLEWIGRIDPENGNTKYDPKFQGRATITAYKSINTAYLELSRLRSDDTAVYYCASGPNYYGTTWFAYWGQGTTVTVSS
# VL: EIVLTQSPSTLSASVGDRVTITCRASHGISNYLAWYQQKPGRAPKLLIYKASTLHIGVPSRFSGSGSGTEFALTISSLQPDDFSTYYCQQYNSYLPHTFGQGTRLEIKR
# B7: Hu6G7.1 scFv (scFv, V domains shown)
# VH: QVQLVQSGAEVKKPGASVKVSCKASDYSFTDYNIYWVRQTPGQGLEWIGYIDPYNGGTSYNQKFKGRATLTVDKSISTAYMELSRLRSDDTAVYYCALYGYDPDYIDYWGQGTTLTVSS
# VL: DIVLTQSPASMAVSPGQRVTITCSASSSVSYLHWFQQKPGQSPKLWIYSTSNLASGVPARFSGSGSGTDYTLTINPMEAEDTATYYCQQRSSYPYTFGQGTKLEIKR
# What was measured:
# [1] = molecular target: inactive BoNT/G (BoNT/Gi) (Clostridium botulinum) (UniProt Q60393); assay: flow cytometry, scFv on yeast; against hu6G6 Wt
# [2] = molecular target: inactive BoNT/G (BoNT/Gi) (Clostridium botulinum) (UniProt Q60393); assay: flow cytometry, scFv on yeast
# [3] = molecular target: T1, active BoNT/G holotoxin
# [4] = molecular target: T2, inactive BoNT/G (BoNT/Gi); assay: flow cytometry, scFv on yeast
Binder,Improvement over WT [1] [fold],Kd [2] [nM],Kd [3] [nM],fold lower affinity than murine 6G7.1 [4] [fold]
B1,4.5,5.18,–,–
B2,3.5,6.5,–,–
B3,6.8,3.46,–,–
B4,6.2,3.75,–,–
B5,4.3,5.43,–,–
B6,–,–,0.476,–
B7,–,–,–,10
